In the supplement of paper PMC9732359:
± gives the uncertainty stated by the source.

Experiment: protein stability index of a GFP-peptide fusion (yeast GPS) (PSI 1-4); higher = more stable; sorted into four equal gates, so the index is relative within each strain
Details: ubr1∆
In short: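 Tiled 17-residue peptides from yeast proteins were fused downstream of GFP on a plasmid that also expresses Cherry, and the pooled library was carried in yeast. Mid-log cultures grown in leucine-free medium were sorted into four equal gates by GFP/Cherry fluorescence ratio. Plasmids from each gate were PCR-amplified and Illumina-sequenced, and reads were assigned to strains by barcodes. Each peptide's protein stability index is the sum, over gates, of the gate's read frequency multiplied by its gate number.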

Sequence | protein stability index
NSSESDEEESNDEKQKA [RPN13] | 3.41 ± 0.088
NSTHLLPLQPIEIDYTV [SNF12] | 2.21 ± 0.036
NSVRNSLLLAHFFSKSC [NUT1] | 1.18 ± 0.035
NTEEKAELQSNLQVELL [YGL100W/SEH1] | 2.74 ± 0.083
NTFGSSSLFNNSTNSNT [YJL041W/NSP1] | 2.5 ± 0.05
NTFNYDVKISNDFFDNG [RPN4] | 2.48 ± 0.072
NTGDGSISTYKDILNLA [ECM29] | 3.09 ± 0.079
NTGLLNKANIQALIHGL [RPN11] | 2.67 ± 0.16
NTHLGARNVQVHQEPYV [RPS0A] | 2.11 ± 0.058
NTIIRDGSKMLKRADYT [RPN14] | 2.2 ± 0.055
NTLGKGQNCLDIDGIMD [SNU114] | 3.2 ± 0.11
NTLRKCYPQFAERDSQG [UBP6] | 2.78 ± 0.12
NTNLMNGVNVQIDQLNR [GRR1] | 2.99 ± 0.05
NTPLVGAAFKVISNLVP [YJL039C/NUP192] | 2.47 ± 0.1
NTSAATVHTATSSSIIL [SSN2] | 2.65 ± 0.038
NTTDPLGHTKAALGEVA [SIR2] | 3.08 ± 0.069
NTTKPAFGGLNFGGGNN [YJL041W/NSP1] | 3.13 ± 0.068
NTVVGISGDISDMQHIE [PRE4] | 2.82 ± 0.12
NVDQTKTQCPNYDTCGG [RPC11] | 3.21 ± 0.093
NVEKPSSKPAFNLISNA [YLR335W/NUP2] | 3.16 ± 0.044
NVLLLDSNGDFNEDQLF [RRP46] | 3.17 ± 0.044
NVMLEKIKDNKEKIKNN [RPT5] | 2.72 ± 0.094

Sequence | protein stability index
NVNSRNQLVEPNRIKLS [SRB5] | 2.19 ± 0.036
NVPWPQNSYADKVTSQA [RPP1] | 2.25 ± 0.096
NVSNTFNKTTNIDINNE [YJL041W/NSP1] | 3.08 ± 0.051
NVTSFMPFWKFFMKNFP [SRB8] | 1.35 ± 0.041
NVVEVMDMNEIEDKENS [RPT5] | 2.71 ± 0.059
NWRGREHWKVRNFKKAN [BRN1] | 3.49 ± 0.1
NWSKEDLQKLLKGIQEF [SWI3] | 3.33 ± 0.055
NYASVYPVVEVERGRVG [RRP43] | 3.42 ± 0.056
NYEDVGRFLRVPKEGLF [BRR2] | 3.49 ± 0.064
NYEIVFDTVSNKLFTEP [YMR129W/POM152] | 3.03 ± 0.032
NYIINDIKKNNKIKLNI [SRB8] | 3.35 ± 0.2
NYNSTSRSTEKKNDMNT [SIR4] | 2.55 ± 0.049
NYTKDNEYYPMCEQALS [YCS4] | 2.47 ± 0.052
NYVAVGDVSNLPYLDEL [QCR2] | 3.18 ± 0.051
NYYSNKSNSTGNISSST [REC8] | 3.09 ± 0.064
NYYYLFDKKSFFNGKAL [PRP8] | 2.38 ± 0.037
PAFSFGISNGSESKDSD [YLR335W/NUP2] | 3.08 ± 0.088
PAFSFNSSVGNKTDAQA [YJL041W/NSP1] | 3.16 ± 0.085
PAFSNSNGFNNVTFGSK [YMR153W/NUP53] | 3.13 ± 0.048
PAFTFGAQKDNEKKTEE [YJL041W/NSP1] | 3.46 ± 0.2
PAGTSLFGNNAGNTTTG [YGL172W/NUP49] | 3.24 ± 0.084
PAPINSLSRDFVMKTRR [SNU114] | 3.15 ± 0.051

Sequence | protein stability index
PCLSRSCTKCPQIVVPD [DIS3] | 2.57 ± 0.03
PDFKPWEHTAAEDQILA [SRB8] | 3.02 ± 0.091
PDGSFEDWSVEELIVDL [RPO26] | 2.84 ± 0.081
PDGVVVHRDDPALVGKL [SNF6] | 3.33 ± 0.053
PEDAQLLLAANTHLGAR [RPS0A] | 1.9 ± 0.068
PEELARILQQLKLDKII [RGR1] | 2.72 ± 0.063
PEGLLKSLWDYVKKNTE [TAF14] | 3.13 ± 0.094
PEILRFKVYEPLLLVGL [RPS16A] | 2.65 ± 0.068
PESIDTILSSKLSNIWM [SRB2] | 2.91 ± 0.042
PETGDHVVGRIAEVGNK [RRP4] | 3.08 ± 0.15
PEYAKVGDFLLQYANNA [SIN4] | 1.97 ± 0.044
PFKFGKTSEKSENHTES [YOR098C/NUP1] | 2.92 ± 0.17
PFSFSSATSTTEQTKSK [YLR335W/NUP2] | 2.86 ± 0.054
PGHEMEDFLDKSYYLNT [AAR2] | 3.11 ± 0.04
PGMPNMPGMPNMPGMPK [SRP54] | 3.3 ± 0.071
PGPLPDTDSKPSSQSQN [YLR018C/POM34] | 2.98 ± 0.061
PGQKMSLFSHRKHTRGD [BRN1] | 3.22 ± 0.062
PIDDTMTLLTDSLRKLY [MTW1] | 2.22 ± 0.052
PIKNRKNDTHYLLPDDF [BRN1] | 2.95 ± 0.058
PIMFQDFDDSTAQEINF [IRR1] | 2.88 ± 0.043
PISAVLRGCKFLQSVDI [GRR1] | 2.01 ± 0.036
PISEKGLTLSTTNLDID [RPP1] | 2.9 ± 0.049

Sequence | protein stability index
PITGASLDLIKERRSLK [RPL24A] | 2.98 ± 0.06
PITSETAMKKVEDGNIL [RPL25] | 3.24 ± 0.15
PKARQELPTQLALEIIV [RRP46] | 2.07 ± 0.054
PKASSAKFFLNVSDEQL [ITC1] | 3.23 ± 0.075
PKDPSNVETYEQILQWV [BRR2] | 2.88 ± 0.12
PKMKDEEYDDDDDNSNV [SNF2] | 3.27 ± 0.15
PKNIEPPLTSQYSTRHD [SWI3] | 3.03 ± 0.042
PKNQQYRAFGSIWQVKD [MED7] | 2.64 ± 0.063
PKNSKTPQSKGFVRNSF [RPO31] | 3.18 ± 0.068
PKNYSLHGLRSFYDAIF [YJL039C/NUP192] | 2.4 ± 0.041
PKSTKGKILTIKQQQQQ [YML103C/NUP188] | 2.52 ± 0.04
PKYIDELKTRDATNTSY [SWP82] | 2.94 ± 0.05
PLDDAGTIGWDLGITEK [MCD1] | 3.05 ± 0.16
PLLARKQFVVDVLHPNR [RPS24A] | 1.62 ± 0.071
PLLESFITFSLDDWISI [IRR1] | 2.54 ± 0.052
PLLPIVEELMKKRRGSR [SNU114] | 2.83 ± 0.13
PLLSLDVTPISMFGSDQ [RPN4] | 3.18 ± 0.17
PLLYNSLCTVWKPNPSY [SRB5] | 2.13 ± 0.1
PLPPRIDPSVTMMTVEE [RPT1] | 1.88 ± 0.062
PLPTPFKVDDNVDFPSA [RPN2] | 2.63 ± 0.052
PLSQDELISLRKILESS [YIL149C/MLP2] | 2.32 ± 0.093
PMVSVMKMDKSPTESYS [RPT2] | 1.71 ± 0.093

Sequence | protein stability index
PNEFEIQLSTVNRQSPL [RGR1] | 2.45 ± 0.055
PNELSQILTVDPKTSLR [RPC82] | 2.45 ± 0.053
PNPNNMKTVQSPMGAQP [GAL11] | 2.94 ± 0.075
PNRIKLSKEVPFSYLID [SRB5] | 2.12 ± 0.06
PNSSANNNPLQQQSSQN [GAL11] | 2.98 ± 0.034
PPAYALLGSCQTDGMGL [RPC25] | 2.41 ± 0.13
PPPAPHNLHPQIGQVPL [SNF5] | 3.01 ± 0.042
PQDILSKLYLLLARVFE [SNF11] | 2.4 ± 0.041
PQENDLESKMSEVGDAF [SMC3] | 2.98 ± 0.22
PQIRQEIEQLDQYIQKQ [YGL172W/NUP49] | 2.78 ± 0.049
PQKYVLHPQLHEVQYQE [SIN4] | 1.6 ± 0.064
PQQNKTPFSFGTANNNS [YJL041W/NSP1] | 3.05 ± 0.034
PQSAPNQMGMGTNNGMS [YOR098C/NUP1] | 3.31 ± 0.096
PRDLLRVIIQELRFPSP [PRP28] | 1.72 ± 0.061
PRGVLLYGPPGTGKTML [RPT3] | 2.72 ± 0.074
PRQLHNTHWGLVCPAET [RPB2] | 1.2 ± 0.088
PRSDAQAIKEASYVNIP [RPS0A] | 2.47 ± 0.034
PRVKGFKMNEIVPLHSP [SEC65] | 2.87 ± 0.066
